From patent publication US20230272029A1, “CO-AGONISTS AT GLP-1 AND GIP RECEPTORS SUITABLE FOR ORAL DELIVERY” (Novo Nordisk A/S, priority 2020, published 2023)
Starred links: 1 amine or outer side, 2 acyl side, 3 side chain; linkers in the order of their positions; H or OH if unused. Non-standard residues stand in square brackets, D forms with d. Groups on a side chain read outwards from the residue. No end group written: not given here. *: point of attachment. C20 diacid = O=C(O)CCCCCCCCCCCCCCCCCCC(=O)*; C18 diacid = O=C(O)CCCCCCCCCCCCCCCCC(=O)*; γGlu = O=C(O)[C@H](CCC(=O)[*:2])N[*:1]; εLys = N[C@@H](CCCCN[*:1])C(=O)[*:2]; Aib = CC(C)(N)C(=O)O

B1: Compound No. 14 (peptide)
peptide: Y[Aib]EGTFTSDYSIALEK([εLys-εLys-γGlu-C18 diacid])QAAREFINWLLAGGPSSGAPPPS-OH
modifications: N-terminus assumed
SMILES: CC[C@H](C)[C@H](NC(=O)[C@H](CO)NC(=O)[C@H](Cc1ccc(O)cc1)NC(=O)[C@H](CC(=O)O)NC(=O)[C@H](CO)NC(=O)[C@@H](NC(=O)[C@H](Cc1ccccc1)NC(=O)[C@@H](NC(=O)CNC(=O)[C@H](CCC(=O)O)NC(=O)C(C)(C)NC(=O)[C@@H](N)Cc1ccc(O)cc1)[C@@H](C)O)[C@@H](C)O)C(=O)N[C@@H](C)C(=O)N[C@@H](CC(C)C)C(=O)N[C@@H](CCC(=O)O)C(=O)N[C@@H](CCCCNC(=O)[C@@H](N)CCCCNC(=O)[C@@H](N)CCCCNC(=O)CC[C@H](NC(=O)CCCCCCCCCCCCCCCCC(=O)O)C(=O)O)C(=O)N[C@@H](CCC(N)=O)C(=O)N[C@@H](C)C(=O)N[C@@H](C)C(=O)N[C@@H](CCCNC(=N)N)C(=O)N[C@@H](CCC(=O)O)C(=O)N[C@@H](Cc1ccccc1)C(=O)N[C@H](C(=O)N[C@@H](CC(N)=O)C(=O)N[C@@H](Cc1c[nH]c2ccccc12)C(=O)N[C@@H](CC(C)C)C(=O)N[C@@H](CC(C)C)C(=O)N[C@@H](C)C(=O)NCC(=O)NCC(=O)N1CCC[C@H]1C(=O)N[C@@H](CO)C(=O)N[C@@H](CO)C(=O)NCC(=O)N[C@@H](C)C(=O)N1CCC[C@H]1C(=O)N1CCC[C@H]1C(=O)N1CCC[C@H]1C(=O)N[C@@H](CO)C(=O)O)[C@@H](C)CC
B2: Compound No. 15 (peptide)
peptide: Y[Aib]EGTFTSDYSILLEK([εLys-εLys-γGlu-C18 diacid])QAAREFINWLLAGGPSSGAPPPS-OH
modifications: N-terminus assumed
SMILES: CC[C@H](C)[C@H](NC(=O)[C@H](Cc1ccccc1)NC(=O)[C@H](CCC(=O)O)NC(=O)[C@H](CCCNC(=N)N)NC(=O)[C@H](C)NC(=O)[C@H](C)NC(=O)[C@H](CCC(N)=O)NC(=O)[C@H](CCCCNC(=O)[C@@H](N)CCCCNC(=O)[C@@H](N)CCCCNC(=O)CC[C@H](NC(=O)CCCCCCCCCCCCCCCCC(=O)O)C(=O)O)NC(=O)[C@H](CCC(=O)O)NC(=O)[C@H](CC(C)C)NC(=O)[C@H](CC(C)C)NC(=O)[C@@H](NC(=O)[C@H](CO)NC(=O)[C@H](Cc1ccc(O)cc1)NC(=O)[C@H](CC(=O)O)NC(=O)[C@H](CO)NC(=O)[C@@H](NC(=O)[C@H](Cc1ccccc1)NC(=O)[C@@H](NC(=O)CNC(=O)[C@H](CCC(=O)O)NC(=O)C(C)(C)NC(=O)[C@@H](N)Cc1ccc(O)cc1)[C@@H](C)O)[C@@H](C)O)[C@@H](C)CC)C(=O)N[C@@H](CC(N)=O)C(=O)N[C@@H](Cc1c[nH]c2ccccc12)C(=O)N[C@@H](CC(C)C)C(=O)N[C@@H](CC(C)C)C(=O)N[C@@H](C)C(=O)NCC(=O)NCC(=O)N1CCC[C@H]1C(=O)N[C@@H](CO)C(=O)N[C@@H](CO)C(=O)NCC(=O)N[C@@H](C)C(=O)N1CCC[C@H]1C(=O)N1CCC[C@H]1C(=O)N1CCC[C@H]1C(=O)N[C@@H](CO)C(=O)O
B3: Compound No. 16 (peptide)
peptide: Y[Aib]EGTFTSDYSIYLEK([εLys-εLys-γGlu-C20 diacid])QAAREFINWLLAGGPSSGAPPPS-OH
modifications: N-terminus assumed
SMILES: CC[C@H](C)[C@H](NC(=O)[C@H](Cc1ccccc1)NC(=O)[C@H](CCC(=O)O)NC(=O)[C@H](CCCNC(=N)N)NC(=O)[C@H](C)NC(=O)[C@H](C)NC(=O)[C@H](CCC(N)=O)NC(=O)[C@H](CCCCNC(=O)[C@@H](N)CCCCNC(=O)[C@@H](N)CCCCNC(=O)CC[C@H](NC(=O)CCCCCCCCCCCCCCCCCCC(=O)O)C(=O)O)NC(=O)[C@H](CCC(=O)O)NC(=O)[C@H](CC(C)C)NC(=O)[C@H](Cc1ccc(O)cc1)NC(=O)[C@@H](NC(=O)[C@H](CO)NC(=O)[C@H](Cc1ccc(O)cc1)NC(=O)[C@H](CC(=O)O)NC(=O)[C@H](CO)NC(=O)[C@@H](NC(=O)[C@H](Cc1ccccc1)NC(=O)[C@@H](NC(=O)CNC(=O)[C@H](CCC(=O)O)NC(=O)C(C)(C)NC(=O)[C@@H](N)Cc1ccc(O)cc1)[C@@H](C)O)[C@@H](C)O)[C@@H](C)CC)C(=O)N[C@@H](CC(N)=O)C(=O)N[C@@H](Cc1c[nH]c2ccccc12)C(=O)N[C@@H](CC(C)C)C(=O)N[C@@H](CC(C)C)C(=O)N[C@@H](C)C(=O)NCC(=O)NCC(=O)N1CCC[C@H]1C(=O)N[C@@H](CO)C(=O)N[C@@H](CO)C(=O)NCC(=O)N[C@@H](C)C(=O)N1CCC[C@H]1C(=O)N1CCC[C@H]1C(=O)N1CCC[C@H]1C(=O)N[C@@H](CO)C(=O)O
B4: Compound No. 38 (peptide)
peptide: Y[Aib]EGTFTSDYSIYLEEK([εLys-εLys-γGlu-C18 diacid])AAREFINWLLAGGPSSGAPPPS-OH
modifications: N-terminus assumed
SMILES: CC[C@H](C)[C@H](NC(=O)[C@H](Cc1ccccc1)NC(=O)[C@H](CCC(=O)O)NC(=O)[C@H](CCCNC(=N)N)NC(=O)[C@H](C)NC(=O)[C@H](C)NC(=O)[C@H](CCCCNC(=O)[C@@H](N)CCCCNC(=O)[C@@H](N)CCCCNC(=O)CC[C@H](NC(=O)CCCCCCCCCCCCCCCCC(=O)O)C(=O)O)NC(=O)[C@H](CCC(=O)O)NC(=O)[C@H](CCC(=O)O)NC(=O)[C@H](CC(C)C)NC(=O)[C@H](Cc1ccc(O)cc1)NC(=O)[C@@H](NC(=O)[C@H](CO)NC(=O)[C@H](Cc1ccc(O)cc1)NC(=O)[C@H](CC(=O)O)NC(=O)[C@H](CO)NC(=O)[C@@H](NC(=O)[C@H](Cc1ccccc1)NC(=O)[C@@H](NC(=O)CNC(=O)[C@H](CCC(=O)O)NC(=O)C(C)(C)NC(=O)[C@@H](N)Cc1ccc(O)cc1)[C@@H](C)O)[C@@H](C)O)[C@@H](C)CC)C(=O)N[C@@H](CC(N)=O)C(=O)N[C@@H](Cc1c[nH]c2ccccc12)C(=O)N[C@@H](CC(C)C)C(=O)N[C@@H](CC(C)C)C(=O)N[C@@H](C)C(=O)NCC(=O)NCC(=O)N1CCC[C@H]1C(=O)N[C@@H](CO)C(=O)N[C@@H](CO)C(=O)NCC(=O)N[C@@H](C)C(=O)N1CCC[C@H]1C(=O)N1CCC[C@H]1C(=O)N1CCC[C@H]1C(=O)N[C@@H](CO)C(=O)O

Biological target: human GLP-1 receptor (human, UniProt P43220 24-463)
Test: cell-based or functional assay

Compared with B1, B2 is lower in “hGLP-1R, CRE Luc 0% HSA EC50 (pM)” value: 5.4 pM for the first, 5 pM for the second.

B3 and B4 are the same in “hGLP-1R, CRE Luc 0% HSA EC50 (pM)” value: 3.1 pM for the first, 3.1 pM for the second.

Compared with B1, B2 is lower in “hGLP-1R, CRE Luc 1% HSA EC50 (pM)” value: 306 pM for the first, 130 pM for the second.

Going from B3 to B4, the “hGLP-1R, CRE Luc 1% HSA EC50 (pM)” value falls from 321 pM to 259 pM.

Biological target: T1, human GIP receptor (human, UniProt P48546 22-466)
T1 sequence (looked up): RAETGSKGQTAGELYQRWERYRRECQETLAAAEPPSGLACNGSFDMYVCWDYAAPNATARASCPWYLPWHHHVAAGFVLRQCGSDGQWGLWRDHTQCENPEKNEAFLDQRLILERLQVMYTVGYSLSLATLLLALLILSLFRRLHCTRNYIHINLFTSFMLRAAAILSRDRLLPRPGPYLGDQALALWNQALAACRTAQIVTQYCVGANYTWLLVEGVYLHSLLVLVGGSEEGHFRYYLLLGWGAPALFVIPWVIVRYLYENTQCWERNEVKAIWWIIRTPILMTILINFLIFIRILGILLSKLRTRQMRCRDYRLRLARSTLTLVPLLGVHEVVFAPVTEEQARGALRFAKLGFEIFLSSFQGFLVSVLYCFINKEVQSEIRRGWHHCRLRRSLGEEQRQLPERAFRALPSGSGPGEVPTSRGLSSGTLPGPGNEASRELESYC
Test: cell-based or functional assay

First: B1
Second: B2
The “hGIPR, CRE Luc 0% HSA EC50 (pM)” value of the first is higher: 11.6 pM for the first, 7.1 pM for the second.

Going from B3 to B4, the “hGIPR, CRE Luc 0% HSA EC50 (pM)” value falls from 13.4 pM to 12.4 pM.

Going from B1 to B2, the “hGIPR, CRE Luc 1% HSA EC50 (pM)” value falls from 580 pM to 138 pM.

Going from B3 to B4, the “hGIPR, CRE Luc 1% HSA EC50 (pM)” value rises from 804 pM to 815 pM.
